Several values for one entry are separate records, joined by “and”; a condition that tells them apart may be missing. Identical values can stand only once.

In the assay the target is T1, human prolactin receptor (human, UniProt P16471 25-622).
T1 sequence (looked up): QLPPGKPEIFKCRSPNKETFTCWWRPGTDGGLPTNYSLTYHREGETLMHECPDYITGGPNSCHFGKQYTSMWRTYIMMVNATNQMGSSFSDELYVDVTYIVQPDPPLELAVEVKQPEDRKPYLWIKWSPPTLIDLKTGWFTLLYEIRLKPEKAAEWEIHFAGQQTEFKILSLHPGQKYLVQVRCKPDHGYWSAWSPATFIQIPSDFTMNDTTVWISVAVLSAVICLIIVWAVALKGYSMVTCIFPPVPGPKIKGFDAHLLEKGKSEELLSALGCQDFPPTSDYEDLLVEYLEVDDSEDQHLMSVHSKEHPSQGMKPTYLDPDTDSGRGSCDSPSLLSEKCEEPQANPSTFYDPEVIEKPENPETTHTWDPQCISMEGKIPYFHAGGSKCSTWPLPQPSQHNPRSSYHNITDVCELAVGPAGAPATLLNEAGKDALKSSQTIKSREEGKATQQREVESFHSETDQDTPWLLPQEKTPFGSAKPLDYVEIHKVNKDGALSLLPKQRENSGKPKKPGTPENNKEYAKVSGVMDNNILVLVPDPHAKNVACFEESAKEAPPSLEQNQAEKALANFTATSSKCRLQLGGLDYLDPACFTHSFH
Briefly: cell-based or functional assay.

On to “G129R variant of human prolactin (from UniProt P01236 29-227) (ligand)”, for which the T47-D cell proliferation (96 well MTS assay) (molar ratio hPRL-G129R:hPRL) was 1 and 2; the apoptosis (DNA fragmentation, TUNEL assay) in T-47D cells is 1; the tyrosine phosphorylation of STAT proteins in T47-D cells (anti-phosphotyrosine immunoblot) (ratio hPRL-G129R:hPRL) was 5.

B1: human prolactin (ligand, UniProt P01236 29-227, looked up)
chain: LPICPGGAARCQVTLRDLFDRAVVLSHYIHNLSSEMFSEFDKRYTHGRGFITKAINSCHTSSLATPEDKEQAQQMNQKDFLSLIVSILRSWNEPLYHLVTEVRGMQEAPEAILSKAVEIEEQTKRLLEGMELIVSQVHPETKENEIYPVWSGLPSLQMADEESRLSAYYNLLHCLRRDSHKIDNYLKLLKCRIIHNNNC
On to B1, for which the “apoptosis (DNA fragmentation, TUNEL assay) in T-47D cells” value is 4 ratio hPRL:G129R.

The values above are taken from US20030022833A1 (GREENVILLE HOSPITAL SYSTEM, published 2003).
